The record followed here is PMC3241732 (The Journal of Cell Biology, 2011).

The target of this test is T1, His6-Cdc12 (Saccharomyces cerevisiae, UniProt P32468 1-407).
T1 sequence: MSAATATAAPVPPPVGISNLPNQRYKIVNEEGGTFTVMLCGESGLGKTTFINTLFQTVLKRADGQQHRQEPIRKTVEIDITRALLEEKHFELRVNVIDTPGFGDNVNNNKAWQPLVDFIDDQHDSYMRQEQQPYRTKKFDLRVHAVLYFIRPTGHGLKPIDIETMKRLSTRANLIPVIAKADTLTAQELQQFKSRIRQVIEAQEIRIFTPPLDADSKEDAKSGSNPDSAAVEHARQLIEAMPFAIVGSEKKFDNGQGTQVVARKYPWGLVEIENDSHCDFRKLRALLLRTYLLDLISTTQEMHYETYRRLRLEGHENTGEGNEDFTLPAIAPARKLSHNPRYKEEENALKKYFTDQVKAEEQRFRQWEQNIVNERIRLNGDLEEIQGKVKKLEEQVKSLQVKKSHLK
The test is described as follows: negative-stain EM, single-particle class averages.

B1: Shs1 (natural protein)
chain: MSTASTPPINLFRRKKEHKRGITYTMLLCGPAGTGKTAFANNLLETKIFPHKYQYGKSNASISSNPEVKVIAPTKVVSFNSKNGIPSYVSEFDPMRANLEPGITITSTSLELGGNKDQGKPEMNEDDTVFFNLIMTHGIGENLDDSLCSEEVMSYLEQQFDIVLAEETRIKRNPRFEDTRVHVALYFIEPTGHGLREVDVELMKSISKYTNVLPIITRADSFTKEELTQFRKNIMFDVERYNVPIYKFEVDPEDDDLESMEENQALASLQPFAIITSDTRDSEGRYVREYPWGIISIDDDKISDLKVLKNVLFGSHLQEFKDTTQNLLYENYRSEKLSSVANAEEIGPNSTKRQSNAPSLSNFASLISTGQFNSSQTLANNLRADTPRNQVSGNFKENEYEDNGEHDSAENEQEMSPVRQLGREIKQENENLIRSIKTESSPKFLNSPDLPERTKLRNISETVPYVLRHERILARQQKLEELEAQSAKELQKRIQELERKAHELKLREKLINQNKLNGSSSSINSLQQSTRSQIKKNDTYTDLASIASGRD
Turning to B1, the “percent of particles that are heptamers” value came out at 15%, the “percent of particles that are hexamers” value was determined as 38% and the “percent of particles that are octamers” value stood at 47%.

B2: Cdc11 (natural protein)
chain: MSGIIDASSALRKRKHLKRGITFTVMIVGQSGSGRSTFINTLCGQQVVDTSTTILLPTDTSTEIDLQLREETVELEDDEGVKIQLNIIDTPGFGDSLDNSPSFEIISDYIRHQYDEILLEESRVRRNPRFKDGRVHCCLYLINPTGHGLKEIDVEFIRQLGSLVNIIPVISKSDSLTRDELKLNKKLIMEDIDRWNLPIYNFPFDEDEISDEDYETNMYLRTLLPFAIIGSNEVYEMGGDVGTIRGRKYPWGILDVEDSSISDFVILRNALLISHLHDLKNYTHEILYERYRTEALSGESVAAESIRPNLTKLNGSSSSSTTTRRNTNPFKQSNNINNDVLNPASDMHGQSTGENNETYMTREEQIRLEEERLKAFEERVQQELLLKRQELLQREKELREIEARLEKEAKIKQEE
B2: the “percent of particles that are heptamers” value was 10%, the “percent of particles that are hexamers” value was determined as 4% and the “percent of particles that are octamers” value came out at 86%.

B3: Shs1(Δ349–551) (domain or fragment)
chain: MSTASTPPINLFRRKKEHKRGITYTMLLCGPAGTGKTAFANNLLETKIFPHKYQYGKSNASISSNPEVKVIAPTKVVSFNSKNGIPSYVSEFDPMRANLEPGITITSTSLELGGNKDQGKPEMNEDDTVFFNLIMTHGIGENLDDSLCSEEVMSYLEQQFDIVLAEETRIKRNPRFEDTRVHVALYFIEPTGHGLREVDVELMKSISKYTNVLPIITRADSFTKEELTQFRKNIMFDVERYNVPIYKFEVDPEDDDLESMEENQALASLQPFAIITSDTRDSEGRYVREYPWGIISIDDDKISDLKVLKNVLFGSHLQEFKDTTQNLLYENYRSEKLSSVANAEEIGP
For B3, the “percent of particles that are octamers” value stood at 72%.
